{"source": "patent US20240400675A1", "about": "(published 2024)", "binders": {"B1": {"name": "XENP36041 H2.91_L1 (antibody, V domains shown)", "VH": "EVQLVQSGAEVKKPGESLRISCKTSGYTFTEYTMHWVRQMPGKSLEWMGGIDPNNFNTHYNQKFQGHVTISVDKSISTAYLQWSSLKASDTAMYYCARIYYFGRLYFDFWGAGTLVTVSS", "VL": "DIQMTQSPSSLSASVGDRVTITCQASEDIYNRLAWYQQKPGKVPKLLISGATSLETGVPSRFSGSGSGKDYTFTISSLQPEDIATYYCQQYWSSPLTFGGGTKVEIKR"}, "B2": {"name": "XENP34218, humanized C6-30 H1L1 bivalent mAb (antibody, V domains shown)", "VH": "QVQLVQSGAEVKKPGASVKVSCKTSGYTFTEYTMHWVRQAPGQSLEWMGGIDPNNGNTHYNQKFQGRVTITVDKSASTAYMELSSLRSEDTAVYYCARIYYFGRLYFDFWGAGTLVTVSS", "VL": "B1 VL"}, "B3": {"name": "XENP36021 H2.71_L1 (antibody, V domains shown)", "VH": "B1 VH with P53L, F56G", "VL": "B1 VL"}, "B4": {"name": "XENP36066 H2.119_L1 (antibody, V domains shown)", "VH": "B1 VH with F56G, Q65E", "VL": "B1 VL"}, "B5": {"name": "XENP36065 H2.118_L1 (antibody, V domains shown)", "VH": "B1 VH with F56G, F64K", "VL": "B1 VL"}, "B6": {"name": "XENP36025 H2.75_L1 (antibody, V domains shown)", "VH": "B1 VH with N54H, F56G", "VL": "B1 VL"}, "B7": {"name": "XENP34220, humanized C6-30 H2L1 bivalent mAb (antibody, V domains shown)", "VH": "B1 VH with F56G", "VL": "B1 VL"}, "B8": {"name": "XENP35936 H2_L1.114 (antibody, V domains shown)", "VH": "B1 VH with F56G", "VL": "B1 VL with S94G"}, "B9": {"name": "XENP35090 H1.6_L1 (antibody, V domains shown)", "VH": "B2 VH with N55S", "VL": "B1 VL"}, "B10": {"name": "XENP36022 H2.72_L1 (antibody, V domains shown)", "VH": "B1 VH with P53A, F56G", "VL": "B1 VL"}, "B11": {"name": "XENP35929 H2_L1.107 (antibody, V domains shown)", "VH": "B1 VH with F56G", "VL": "B1 VL with S94A"}, "B12": {"name": "XENP35883 H1.19_L1 (antibody, V domains shown)", "VH": "B2 VH with V93T", "VL": "B1 VL"}, "B13": {"name": "XENP35979 H2_L1.187 (antibody, V domains shown)", "VH": "B1 VH with F56G", "VL": "B1 VL with Y30V"}, "B14": {"name": "XENP35890 H2.11_L1 (antibody, V domains shown)", "VH": "B1 VH with T28S, F56G", "VL": "B1 VL"}, "B15": {"name": "XENP35888 H1.24_L1 (antibody, V domains shown)", "VH": "B2 VH with F102L", "VL": "B1 VL"}, "B16": {"name": "XENP35886 H1.22_L1 (antibody, V domains shown)", "VH": "B2 VH with Y100L", "VL": "B1 VL"}, "B17": {"name": "XENP35981 H2_L1.189 (antibody, V domains shown)", "VH": "B1 VH with F56G", "VL": "B1 VL with N31L"}, "B18": {"name": "XENP36040 H2.90_L1 (antibody, V domains shown)", "VH": "B1 VH with F56L", "VL": "B1 VL"}, "B19": {"name": "XENP35891 H2.12_L1 (antibody, V domains shown)", "VH": "B1 VH with T28D, F56G", "VL": "B1 VL"}, "B20": {"name": "XENP35865 H2_L1.60 (antibody, V domains shown)", "VH": "B1 VH with F56G", "VL": "B1 VL with Y91L"}, "B21": {"name": "XENP35059 H2_L1.16 (antibody, V domains shown)", "VH": "B1 VH with F56G", "VL": "B1 VL with G50A"}}, "note": "Numbering of substitutions follows the chain as printed."}
{"target": "T1, human CLDN9 (UniProt O95484 1-217)", "T1 chain": "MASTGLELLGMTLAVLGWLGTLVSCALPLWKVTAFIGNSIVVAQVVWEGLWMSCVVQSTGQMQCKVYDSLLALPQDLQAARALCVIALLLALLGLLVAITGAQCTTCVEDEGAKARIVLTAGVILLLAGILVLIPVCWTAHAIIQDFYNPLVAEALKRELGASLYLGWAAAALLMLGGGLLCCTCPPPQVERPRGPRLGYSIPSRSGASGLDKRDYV", "assay": "HEK293E cell binding; avid", "units": {"EC50": "µg/mL"}}
{"binder": "B1", "EC50": 32.5}
{"binder": "B2", "EC50": 11.6}
{"binder": "B3", "EC50": 49.3}
{"binder": "B4", "EC50": 18}
{"binder": "B5", "EC50": 492}
{"binder": "B6", "EC50": 61.1}
{"binder": "B7", "EC50": 11.1}
{"binder": "B8", "EC50": 57.4}
{"binder": "B9", "EC50": 7.06}
{"binder": "B10", "EC50": 47.2}
{"binder": "B11", "EC50": 99.1}
{"binder": "B12", "EC50": 16.8}
{"binder": "B13", "EC50": 29.2}
{"binder": "B14", "EC50": 34.1}
{"binder": "B15", "EC50": 43.8}
{"binder": "B16", "EC50": 24.5}
{"binder": "B17", "EC50": 31.7}
{"binder": "B18", "EC50": 66.1}
{"binder": "B19", "EC50": 44.1}
{"binder": "B20", "EC50": 124}
{"target": "T2, human CLDN6 (UniProt P56747 1-220)", "T2 chain": "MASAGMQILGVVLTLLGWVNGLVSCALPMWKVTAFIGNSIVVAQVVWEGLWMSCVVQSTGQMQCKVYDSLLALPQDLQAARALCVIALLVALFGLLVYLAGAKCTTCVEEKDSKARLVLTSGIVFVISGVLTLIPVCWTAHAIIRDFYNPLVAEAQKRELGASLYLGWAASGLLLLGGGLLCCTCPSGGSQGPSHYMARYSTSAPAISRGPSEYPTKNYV", "assay": "HEK293E cell binding; avid", "units": {"EC50": "µg/mL"}}
{"binder": "B1", "EC50": 0.449}
{"binder": "B2", "EC50": 0.344}
{"binder": "B3", "EC50": 0.902}
{"binder": "B4", "EC50": 0.567}
{"binder": "B5", "EC50": 0.783}
{"binder": "B6", "EC50": 1.34}
{"binder": "B7", "EC50": 0.391}
{"binder": "B8", "EC50": 0.829}
{"binder": "B9", "EC50": 0.903}
{"binder": "B10", "EC50": 0.514}
{"binder": "B11", "EC50": 0.792}
{"binder": "B12", "EC50": 0.617}
{"binder": "B13", "EC50": 0.323}
{"binder": "B14", "EC50": 0.408}
{"binder": "B15", "EC50": 0.657}
{"binder": "B16", "EC50": 0.941}
{"binder": "B17", "EC50": 0.404}
{"binder": "B18", "EC50": 0.706}
{"binder": "B19", "EC50": 0.474}
{"binder": "B20", "EC50": 0.686}
{"target": "T1, human CLDN9", "assay": "HEK293E cell binding; avid", "remark": "another data set of the same source", "units": {"EC50": "µg/mL"}}
{"binder": "B2", "EC50": 54.2}
{"binder": "B7", "EC50": 43.8}
{"binder": "B9", "EC50": 44.6}
{"binder": "B21", "EC50": 32.7}
{"target": "T2, human CLDN6", "assay": "HEK293E cell binding; avid", "remark": "another data set of the same source", "units": {"EC50": "µg/mL"}}
{"binder": "B2", "EC50": 1.24}
{"binder": "B7", "EC50": 1.63}
{"binder": "B9", "EC50": 1.56}
{"binder": "B21", "EC50": 1.28}
